Source: US7723070B2, “Overexpression of aminoacyl-tRNA synthetases for efficient production of engineered proteins containing amino acid analogues” (California Institute of Technology, priority 2000, dated 2010)

What was measured:
[1] = substrate: CSCC[C@H](N)C(=O)O; test: purified protein, by the assay type; settings: 25.0 °C
[2] = substrate: C#CCCC(N)C(=O)O; test: ATP-PPi exchange assay: activation of methionine and methionine analogues by MetRS; format: biochemical, E. coli; settings: other: ATP-PPi exchange, purified truncated MetRS; 25.0 °C
Procedure: (§1) Activation of methionine analogues by MetRS was assayed via the amino-acid-dependent ATP-PPi exchange reaction, also as previously described (Mellot, P.; Mechulam, Y.; LeCorre, D.; Blanquet, S.; Fayat, G. J. Mol. Biol. 1989, 208, 429; Blanquet, S.; Fayat, G.; Waller, J.-P. Eur. J. Biochem. 1974, 44, 343; Ghosh, G.; Pelka, H.; Schulman, L. H. Biochemistry 1990, 29, 2220). The assay, which measures the ^32P-radiolabeled ATP formed by the enzyme-catalyzed exchange of ^32P-pyrophosphate (PPi) into ATP, was conducted in 150 μl of reaction buffer (pH 7.6, 20 mM imidazole; 0.1 mM EDTA, 10 mM β-mercaptoethanol, 7 mM MgCl2, 2 mM ATP, 0.1 mg/ml BSA, and 2 mM PPi (in the form of sodium pyrophosphate with a specific activity of approximately 0.18 TBq/mole)). […] Kinetic parameters for analogue 5 were obtained with an enzyme concentration of 75 nM and analogue concentrations of 100 μM to 10 mM. Parameters for methionine were obtained by using concentrations ranging from 10 μM to 1 mM. […] Aliquots of 20 μl were removed from the reaction mixture at various time points and were quenched in 0.5 ml of a solution comprising 200 mM PPi, 7% w/v HClO4, and 3% w/v activated charcoal. The charcoal was rinsed twice with 0.5 mL of a 10 mM PPi, 0.5% HClO4 solution and was then resuspended in 0.5 mL of this solution and counted via liquid scintillation methods. Kinetic constants were calculated by nonlinear regression analysis.
(§2) Activation of methionine analogues by MetRS was assayed at 25° C. via the amino acid-dependent ATP-PPi exchange reaction, also as described in Example I (G. Ghosh, H. Pelka, L. H. Schulman, Biochemistry 1990, 29, 2220-2225). […] Kinetic parameters for analogue 5 were obtained with an enzyme concentration of 50 nM and analogue concentrations of 100 μM to 10 mM. […] Kinetic parameters for analogues 4, 7, 8, and 12 were obtained with an enzyme concentration of 50 or 75 nM and analogue concentrations ranging from 5 to 70 mM. Parameters for methionine were obtained by using concentrations ranging from 10 μM to 1 mM. […] Kinetic constants were calculated by nonlinear regression analysis.

[3] = substrate: CCCC[C@H](N)C(=O)O; test: as above; format: biochemical, E. coli; settings: other: ATP-PPi exchange, purified truncated MetRS; 25.0 °C
Procedure: as §1, §2

[4] = substrate: C=CCCC(N)C(=O)O; test: as above; format: biochemical, E. coli; settings: other: ATP-PPi exchange, purified truncated MetRS; 25.0 °C
Procedure: as §1, §2

[5] = substrate: C/C=C/CC(N)C(=O)O; test: as above; format: biochemical, E. coli; settings: 25.0 °C
Procedure: as §1, §2

[6] = other: ATP-PPi exchange, purified truncated MetRS
[7] = other: Example I text, 75 nM enzyme

B1: methionyl tRNA synthetase (MetRS) (Escherichia coli K-12) (protein)
chain: MTQVAKKILVTCALPYANGSIHLGHMLEHIQADVWVRYQRMRGHEVNFICADDAHGTPIMLKAQQLGITPEQMIGEMSQEHQTDFAGFNISYDNYHSTHSEENRQLSELIYSRLKENGFIKNRTISQLYDPEKGMFLPDRFVKGTCPKCKSPDQYGDNCEVCGATYSPTELIEPKSVVSGATPVMRDSEHFFFDLPSFSEMLQAWTRSGALQEQVANKMQEWFESGLQQWDISRDAPYFGFEIPNAPGKYFYVWLDAPIGYMGSFKNLCDKRGDSVSFDEYWKKDSTAELYHFIGKDIVYFHSLFWPAMLEGSNFRKPSNLFVHGYVTVNGAKMSKSRGTFIKASTWLNHFDADSLRYYYTAKLSSRIDDIDLNLEDFVQRVNADIVNKVVNLASRNAGFINKRFDGVLASELADPQLYKTFTDAAEVIGEAWESREFGKAVREIMALADLANRYVDEQAPWVVAKQEGRDADLQAICSMGINLFRVLMTYLKPVLPKLTERAEAFLNTELTWDGIQQPLLGHKVNPFKALYNRIDMRQVEALVEASK
notes: The fully active, truncated form of methionyl tRNA synthetase (MetRS) was purified from overnight cultures of JM101 cells carrying the plasmid pGG3; made in house; host or cells: E. coli JM101 carrying plasmid pGG3
- Km [1, 6]: 0.0243 ± 0.002 mM
- kcat [1, 6]: 13.3 s⁻¹
- kcat/Km [1, 6]: 547000 M⁻¹ s⁻¹
- kcat/Km [1, 7]: 0.54 s^−1μM^−1
- Km [2]: 2.415 ± 0.17 mM
- kcat [2]: 2.6 ± 0.3 s⁻¹
- kcat/Km [2]: 1080 M⁻¹ s⁻¹
- Km [3]: 4.12 ± 0.9 mM
- kcat [3]: 2.15 ± 0.6 s⁻¹
- kcat/Km [3]: 522 M⁻¹ s⁻¹
- Km [4]: 4.555 ± 0.2 mM
- kcat [4]: 1.35 ± 0.1 s⁻¹
- kcat/Km [4]: 296 M⁻¹ s⁻¹
- Km [5, 6]: 15,675 ± 250 μM
- kcat [5, 6]: 1.82 ± 0.6 s⁻¹
- kcat/Km [5, 6]: 116 M⁻¹ s⁻¹
- kcat/Km [5, 7]: 1.1×10^−4 s^−1μM^−1
